Measured values from patent US20140348834A1 (published 2014).

Biological target: T1, human IL-17A (human, UniProt Q16552 24-155)
T1 construct: Recombinant; biotinylated in the ELISA; also called hIL-17; hIL17A
Assay: hIL17A ELISA
Procedure: The following protocol is used to characterize the binding of IL-17 antibodies to human IL-17 by enzyme-linked immunosorbent assay (ELISA). […] Coat ELISA plate with 50 μl per well of Goat anti Mouse IgG-Fc at 2 ug/ml, overnight at 4° C. […] Wash plate 3×PBS/Tween. […] Add 50 μl Mab diluted to 1 μg/ml in PBS/0.1% BSA to appropriate wells. Incubate 1 hr at room temperature (RT). […] Wash plate 3× with PBS/Tween. […] Add 50 μl of serial diluted biotin-IL17 (human IL-17, IL-17A/F, cyno IL-17) to appropriate wells. Incubate 1 hr at room temperature (RT). […] Wash plate 3× with PBS/Tween. […] Incubate 1 hr at RT. […] Wash plate 3× with PBS/Tween. […] Stop reaction with 50 μl 2N H₂SO₄. […] Read absorbance at 450 nm.

T1 sequence (Q16552 24-155): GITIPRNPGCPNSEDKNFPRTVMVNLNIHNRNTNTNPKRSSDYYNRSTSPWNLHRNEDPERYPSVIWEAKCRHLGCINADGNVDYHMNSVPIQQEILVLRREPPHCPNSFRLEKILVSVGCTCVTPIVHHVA

Row | Binder | EC50 [nM]
1 | IL17-h10F7.14 (antibody, V domains shown, IgG; constant regions not specified) VH: EVQLVQSGAEVKKPGSSVKVSCKASGYTFTDYEIHWVRQAPGQGLEWMGVNDPESGGTFYNQKFDGRVTITADKSTSTAYMELSSLRSEDTAVYYCARYYRYESFYGMDYWGQGTTVTVSS VL: EIVLTQSPSSLSASVGDRVTITCSASSSISYIYWFQQKPGKSPKRWIYATFELASGVPSRFSGSGSGTDYTLTISSLQPEDFATYYCHQRSSYPWTFGQGTKLEIKR | 0.13
2 | IL17-h5C5.1 (antibody, V domains shown, IgG; constant regions not specified) VH: QVQLQQSGAELVRPGASVKLSCKALGYTFTDYEFHWVKQTPVHGLEWIGVIHPGNGGTAYNQNFRDKATLTADKSSSTAYMELSSLTSEDSGVYYCTRFLTYEGYFDYWGQGTALTVSS VL: NIVMTQTPKFLLVSPGDRVTITCKASQSVSIDVGWFQQKPGQSPKLLIYHASNRYTGVPDRFTGSGYGTDFTFTVNTVQAEDLAVYFCQQDYSSPYTFGGGTKLELKR | 1
3 | IL17-h5C5.7 (antibody, V domains shown, IgG; constant regions not specified) VH: QVQLQQSGAELVRPGASVKLSCKALGYTFTDYEFHWVKQTPVHGLEWIGVIHPGNGGTAYNQNFRDKATLTADKSSSTAYMELSSLTSEDSGVYYCTRFLTYEGYFDYWGQGTALTVSS VL: DIQMTQSPSSLSASVGDRVTITCKASQSVSIDVGWFQQKPGKSPKLLIYHASNRYTGVPSRFSGSGSGTDFTFTISSLQPEDFATYFCQQDYSSPYTFGQGTKLEIKR | 0.03
4 | IL17-h5C5.12 (antibody, V domains shown, IgG; constant regions not specified) VH: EVQLVQSGAEVKKPGASVKVSCKASGYTFTDYEFHWVRQAPGQGLEWIGVIHPGNGGTAYNQNFRDRATLTADKSTSTAYMELSSLRSEDTAVYYCTRFLTYEGYFDYWGQGTLVTVSS VL: EIVMTQSPATLSVSPGERATLSCKASQSVSIDVGWYQQKPGQAPRLLIYHASNRYTGIPARFSGSGSGTDFTLTISSLQPEDFAVYYCQQDYSSPYTFGQGTKLEIKR | 0.23
5 | IL17-h5C5.13 (antibody, V domains shown, IgG; constant regions not specified) VH: QVQLQQSGAELVRPGASVKLSCKALGYTFTDYEFHWVKQTPVHGLEWIGVIHPGNGGTAYNQNFRDKATLTADKSSSTAYMELSSLTSEDSGVYYCTRFLTYEGYFDYWGQGTALTVSS VL: EIVMTQSPATLSVSPGERATLSCKASQSVSIDVGWFQQKPGQSPRLLIYHASNRYTGVPARFSGSGSGTDFTLTISSLQPEDFAVYFCQQDYSSPYTFGQGTKLEIKR | 0.03

Second part, the binder after the results:

Row | EC50 [nM] | Binder
6 | 0.02 | IL17-h5C5.16 (antibody, V domains shown, IgG; constant regions not specified) VH: QVQLQQSGAELVRPGASVKLSCKALGYTFTDYEFHWVKQTPVHGLEWIGVIHPGNGGTAYNQNFRDKATLTADKSSSTAYMELSSLTSEDSGVYYCTRFLTYEGYFDYWGQGTALTVSS VL: NIVMTQSPSSLSASVGDRVTITCKASQSVSIDVGWFQQKPGKSPKLLIYHASNRYTGVPSRFSGSGSGTDFTFTISSLQPEDFATYFCQQDYSSPYTFGQGTKLEIKR
7 | 0.05 | IL17-h5C5.10 (antibody, V domains shown, IgG; constant regions not specified) VH: QVQLQQSGAELVRPGASVKLSCKALGYTFTDYEFHWVKQTPVHGLEWIGVIHPGNGGTAYNQNFRDKATLTADKSSSTAYMELSSLTSEDSGVYYCTRFLTYEGYFDYWGQGTALTVSS VL: EIVMTQSPATLSVSPGERATLSCKASQSVSIDVGWYQQKPGQAPRLLIYHASNRYTGIPARFSGSGSGTDFTLTISSLQPEDFAVYYCQQDYSSPYTFGQGTKLEIKR
8 | 0.11 | IL17-h5C5.6 (antibody, V domains shown, IgG; constant regions not specified) VH: EVQLVQSGAEVKKPGASVKVSCKASGYTFTDYEFHWVRQAPGQGLEWIGVIHPGNGGTAYNQNFRDRATLTADKSTSTAYMELSSLRSEDTAVYYCTRFLTYEGYFDYWGQGTLVTVSS VL: DIQMTQSPSSLSASVGDRVTITCKASQSVSIDVGWYQQKPGKAPKLLIYHASNRYTGVPSRFSGSGSGTDFTFTISSLQPEDFATYYCQQDYSSPYTFGQGTKLEIKR
9 | 0.05 | IL17-h5C5.5 (antibody, V domains shown, IgG; constant regions not specified) VH: EVQLVQSGAEVKKPGASVKVSCKASGYTFTDYEFHWVRQAPGQGLEWMGVIHPGNGGTAYNQNFRDRVTITADKSTSTAYMELSSLRSEDTAVYYCARFLTYEGYFDYWGQGTLVTVSS VL: DIQMTQSPSSLSASVGDRVTITCKASQSVSIDVGWYQQKPGKAPKLLIYHASNRYTGVPSRFSGSGSGTDFTFTISSLQPEDFATYYCQQDYSSPYTFGQGTKLEIKR
10 | 0.03 | IL17-h5C5.17 (antibody, V domains shown, IgG; constant regions not specified) VH: EVQLVQSGAEVKKPGASVKVSCKASGYTFTDYEFHWVRQAPGQGLEWMGVIHPGNGGTAYNQNFRDRVTITADKSTSTAYMELSSLRSEDTAVYYCARFLTYEGYFDYWGQGTLVTVSS VL: NIVMTQSPSSLSASVGDRVTITCKASQSVSIDVGWFQQKPGKSPKLLIYHASNRYTGVPSRFSGSGSGTDFTFTISSLQPEDFATYFCQQDYSSPYTFGQGTKLEIKR
